Assay: label from the status in PepcDB records
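Note: failed if final PepcDB status was selected cloned or expressed and not failed if soluble or beyond.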

## MPFATNGAPYYEQLVMQIKQQIVQEVLRPGDQLPSIRAMASEMHLNPNTVSKAYQILEHQRAVYTVKGRGTFVSESSQIATDSNAVDDLQTRLQSLLTEAQFLGISAQQVQAWVTTAYQKGESRDEYPS
  protein production: failed

## MSKHKFMIYFLTTTLVLPTFTTSIAHAEDTNEDDKMKSSSTQEEQTNHNEDVNDNNTNEASQPDDTQSDNTSSEAPTKEDSKNKIKREKSKSSNTSSEEKDDDNTSVSRSHQKRDKDTNNTYRTPLSPIFDATHSSGLPASNFLNPDLYQNGFSLTHLIASLFNFDSDISDYEQPASTNETDDDTHSTNEQDTDSQDQDQTEHSASSSDTTNREHDDVQQSSEKANQSDKTSRQDEIDTKQQSTANQDKDDASVSKALDAIDDFVSDETDDDKDNQGSNNTDTTNHQSYNDDTSTDSKNDSSKTSSSDSNSLSESALDTVLDKYSEDAKKTHQDFESSKKDNETNTSKGEKTKNNTTKASNPQLPTKKELEHKTTPAQSFEDDFKQSNTRSTSLFQTLPQLNGSDVTDGDITVVENKGTRDFIKSIAKDAHKIGQDKDLYASVMIAQAILESSSGNSTLAQAPNYNLFGIKGSYKGQSVNFNTLEAGSDNSMFSINAGFRKYPSTKASLEDYADLIKNGIDGNPTIYKPTWKHEAIDYRDATRHLSRTYATDPNYATKLNSLIKHYHLTDFDKKKMPDLDRYAKQTSSGEDASGSEFKSFEITDSSSPYPQGQCTWYVYERVQQFGKKVGSDWGDAHNWDNRAESDNYDVSQTPSTHSAVVFEAGQAGAHDIYGHVAFVEKVNKDGSIVISESNVKGLGIVSYRTIDASTAEDLHYIEPK
  protein production: failed

## MQRLSTEFSMNHPVRRSPIASFFVGLWDVMNFTRRLIFNLVFFGFLFMLLLVFVVALARGDGTKPLAERTTLVINPEGTLVEQFSADPVSRSLAKAVGDKSAQEVQLRDLVRVIEAAGKDRKIERVLLNLDKFQPSGFASQREVAAALQKLRASGKQIVAFSESMSQGQYLLAAQANEVYLDPMGSVLLEGLGRYRQYFREGLQDKLGVDVHLFRVGEYKSAAEPYILDAASADAKEADLFWMNDVWQRYLADVVTARKLSPAQLTAGIDTLPEGVAAAGGDLAKFALQQKLVDGLKTREEVDALLVKRGVADSDAESGFRNIGFNDYLSQLQAQDSPMDSRPQVAVVVATGEISGGEQPAGRIGGESTAALLRQARDDEKVKAVVLRVDSPGGEVFASEQIRREVVALKQAGKPVVVSMGDLAASGGYWISMNADRIYADPSTISGSIGIFGMVPNLTRALDKIGVHTDGVGTTRFAGAFDITRPLDPAAGQVIQAVINKGYADFTGKVAQARHQSVDAIDKVARGRVWSGAQAKERGLVDAFGGMSEAVADAADRAKLSRGKFRVRYVEKPATPFSQFMNGFAGSRMGAWMLSDSGMARALVARALPEVDTQLRFVESAVHDSKAGGTPVKSLAYCFCGF
  protein production: failed

## MENKYLVSIIVPVHNTADYLHKCIESLRSQTLQQIEIILVDNLSVDGSSEICDEYAKIDKRIKVLHLSIAGLSIARNAGMRIASAPYIGFVDSDDYVEPAMFEKMLDAMVQSDAEIAYCNFLLEYEFKPNESPYRNSGDIVIRDPKNVLQDMMMEKVSCSACTKLYKSGFLTSLQFPEGKNYEDRLVMYEWVALCKKVVWVDSPFYHYVERQTSICHTMSPMNLYHYFLAEYARMRFMEKYSLFEEEDLFKIRTRLIGTCLTIFKEILLKVNLREFKEPVKDMRQKMKEIAALPEDTYELKYRRRVRKIAYHWHLYYLTHFLFKKGGDSLEHHHHHH
  protein production: failed

## MLKQIRPLYLLLYLTPLMFDIILLYTYLDNGIIYWLDSNYPFSPLILLRKILFYYWNDPFFPGAPLFYSQDSLFMGIIIFLLYNIFHFSLELSEFIYLLLFIYLSQVGFVKLLNIIFEILEKRYSSYFTLIAGLLGGFIYSWGFYSYTPPILGVNYPFFIFYMLFPLVLYFSIKYIFKEKVISFSLIILYLILASGTLFSEFTYLLWSIVLYLFTVVPIWLLSRKPSFVQFTVKNLVIALIVIVAGLEQLYQTYNASIGAYQVGVHGEFLGKPIVIYETEAQYKNFPLSSFISLYSPEKYEIIGVLIFVLIFATILFIKGKTGKFFAPLLFLLLIIGGLSTGIINVLPLYSLHSTPIGFIAIGLMYSIQYIFSGFPVSFVSSLIIGYTLLYILEYLGKRRNYIKILFILIILLLSSSYIYSFRAGEVHPEIRAFNLPVNATNIFYPPPELVSVGNYLSVHDEFYNVIEFPMQYAAGMYDNNGTKAVWYTIYPLSDYIMGQVIKSPALANNAIIKSLANSAIYPIYKYFPAFNITNITNYFVLLGAKYIVLNKQEYPGPGVPLGYAGGYPWNYTKFIEALARTPNITLVMENSYYNVYMINLNVSLLYPSEGLAENLSSDQLFFLYANNMLKAQKQSVIYGLGAINITNISGVHIRVVNDYCNEVYEIQVNASRPFYLVFDEGYSPLWEVTINGEINTHHYIANGYANAWLMPAGNYVATLKLSILQTVHITYLLVFLGFIILVLIYVLQRFKIFRYFKNY
  protein production: failed

## MTAAILVTGATGKLGQRVVNRLLQKQAKVRVLTRRREDALKLWGDSVDIAEGNFSDPASLKGASRDVDRVFLLSPIGKTLAADQNAVVDAALSAGVSQIVKLSGSDWTLKNAARSISGTAHAAVEKHLAETGIAHTVLRPNAWMQVALEPVVAALRNGEDVPARFGNAAVSFIDADDIADVAVEALSASAPPAGTLVLTGHEALAALGIARIAARILHRPVGVSHQSASTFPAHIGGFEQKAIAEFGQLIGEGLAASTTDIVEQIIGHPPRSVENYLRARLAVAQQGDHSEGEKTWR
  protein production: failed

## MADKEKKKKESILDLSKYIDKTIRVKFQGGREASGILKGFDPLLNLVLDGTIEYMRDPDDQYKLTEDTRQLGLVVCRGTSVVLICPQDGMEAIPNPFIQQQDA
  protein production: failed

## MRKDDVVIVTCAITGAIHTPSMSPYLPVTPDQIVEEAVKAAEAGAGMVHIHARDPKDGRPTTDVEVFRYICREIKKQSDVVINVTTGGGGTLGIPVEERAKVVPALKPEIATFNMGSMNFAIHPLLKKYKEFKYDWEPEYLEMTRDIVFRNTFKDLEALSRIFKENDTKPELECYDIGQIYNTAFMFHEGYLEPPLRLQFIHGILGGIGTAVEDVLFMKQTADRLIGRENYTWSLVGAGRFQMPLGTLAVIMGGDVRVGLEDSLYIERGKLAKSNAEQVEKMVRIVKELGKRPATPDEVREILGLKGKERVNF
  protein production: not failed

## MSKKKGLSAEEKRTRMMEIFSETKDVFQLKDLEKIAPKEKGITAMSVKEVLQSLVDDGMVDCERIGTSNYYWAFPSKALHARKHKLEVLESQLSEGSQKHASLQKSIEKAKIGRCETEERTRLAKELSSLRDQREQLKAEVEKYKDCDPQVVEEIRQANKVAKEAANRWTDNIFAIKSWAKRKFGFEENKIDRTFGIPEDFDYID
  protein production: failed

## GSSGSSGPTMEGPLRRKTLLKEGRKPALSSWTRYWVVLSGATLLYYGAKSLRGTDRKHYKSTPGKKVSIVGWMVQLPDDPEHPDIFQLNNPDKGNVYKFQTGSRFHAILWHKHLDDACKSSRPQVPANLMSFE
  protein production: not failed

## SNSIGLRQSVSDKGIEIVNLLAPKVEMLGFDLLGAEYLLVPSGAILRLYIDIPFAMQPECMVSIDDCERVSREVSAYLDLEEPISGNYTLEVSSP
  protein production: failed

## MAIRDAFGLTFSGATETGFTPYSQAVRELLCFIGDPVASVDRAILADPGFVMAHVFKGYLFGLATERDATAVARACHEAALPLAATTREEAHVLALGHLANGRWHDAARILEDVAIETPLDALALQVGHQIDFFTGNARMLRDRIARALPSWQSGMPGYHAILGMQAFGLEEMGDYTRAEKLGRTAVEIEPRDGWAQHAVAHVMEMQSRQRDGIVWMRANPEAWTKESFLQVHNWWHLALFHYDLGEIDQVLALYDGPIYGAPSAMALNMVDASALLWRLHLGGIDVGDRWAALAANWPKAGAGDYAFNDAHAMMAFVGAGLDGPALALLEAQREAMHGSGDNAAFTRDVGHPLTLAIKAFGEANYTEAVQLIRPIRAIANRFGGSHAQRDVIDLTLIEAALRAGDRALAGALTAERSMARPDSPLSVLLARRAADLSEN
  protein production: failed

## MAFTKIIFKNPNTGAIKEAPVGFSWTVFFFGFIPALFRADWKWAAIMFLLAMFTFGLSNLVFMFIYNKLYVRDLIGAGFKAQSIASGDLNFASSRIGMEIPRLEAA
  protein production: failed

## MTAALSSNFLLVAFFLYLAATIFYAVSIMGKKWRNKEGEMKGNRWGTFGYYSAIIALLFALGYFITRWMVAGFAPVSNMFEYVTFFGICIGLAFVIINAIYRSNILGLFTMPTVMLMIAYASVFPSEVAPLIPALQSNWLALHVTTVALGQGILAVSFASGLVYLIRTIDYSIQSWKTFWLEFILYSVITVVGFILITYTFQAMNYEAKFNYVNENDVEATMEYHLPPIVGPHEGQLISETGNQPLVNMPAWIKSDQLNTVIWSFLVGLVLYLLLYLVFRKPVGAILQPIVKRVSPQLVDEISYRAIAIGFPVFTLGGLIFAMIWAQIAWTRFWGWDPKEVWALITFLFYAAYLHLRLSKGWHGERSAWLCVIGFAIIMFNLVFVNLVIAGLHSYAGGM
  protein production: failed

## MSSSSPSGSGSDLTERRGIPAAKFIQDVETYLSQSGLDPNSALAFHQERLQQYKVVEMKLLAQQRDLQAKIPDIEKCLEVVATLEAKKGTGEALLADFEVSEGIYSRACIEDTDSVCLWLGANVMLEYSCEEASALLKNNLENAKASLEVLVADLQFLRDQVTVTQVTIARVYNWDVHQRRVKQVTPTAIAVADS
  protein production: failed

## AAGAVRTDPVIHLHGSRSEDEPTTVLVHAGTATIMPYRALITEIRRRSPGLAEVVGVEVPDLSGFLAAPPDGLIERMAADYARALTADGRHRFHVVGYCLGGLIATEVARNLAESGAEVESLTVISSHSPRFRLDDELLAEYSFAVMMGIDPADLGFPDDQYRVAAAADTVLAASPGVLPDGGLAALGGEFEDVASRFRRLADVPRATRIARMCEAVPASAGTYEPDHMTRLFLAFRQSVFAITRYRAEPYAGDITFLRHDGAYPFPGSKDAVTAYWEELTLGDLDIVDIGGDHYSCLSVEHAPGILKTLGELTQGAITR
  protein production: failed

## MNLTFLGLCIACMGVSVGEGLLMNGLFKSVARQPDMLSEFRSLMFLGVAFIEGTFFVTLVFSFIIK
  protein production: failed

## MPVNSILGVFAKSPIKPLQEHMDKVYDCASLLVPFFEATITGNWDDAVQIRKQISLAEKQGDSLKREIRLTLPSGLFMPVERTDLLELLTQQDKIANKAKDISGRVIGRQLLIPQALQVPFIAYLQRCIDAVGLAQQVINELDDLLEAGFRGREVDFVAKMINELDIIEEDTDDLQIQLRRQLFALESELNPVDVMFLYKTIEWVGGLADLAERVGSRLELMLARV
  protein production: not failed

## MKRKSIFLTFGLLVLSWIGCVENDLPYPTIVGQITEMEVAGMTSCRILGASNTVEIKVADTIDLRDLRVEKLVVTEGMKVYPDSAACLDIAHFPDTGFVSADSLPAGMDTRMNFLNPVKFRLSLYQDYDWTVNVSRDIVRKIKIKNQVGSALIDDYTKNVIVYVDSTEQPSLRNIEIEELQLGSSIAQTTPDPSKVVDFTRPRVFYVTAFDETEEWTLSVQYPNANVQLTQLSAWTRRAYVSGSISKGEVEAEYRKAGETVWESVLPNEISYEGEDFLIMMTHLAAGTNYEYRLTMNGTVGEILTFTTDTIMQVPNLGFDDWVMKNEKTWYPNATLDDADHFWDSGNEGASIASRNPTAPETGDVVKGRAVRMASDYISIASKFAAGNIYTGDFVGLAGIEGAELDFGQPYTGRPSALKGYYRYTPGVIDQAKAPYDALMGQTDSCHIYIGLFDWSAPFRVNTTTGTFVDLTWNNESMIAFGELKSNEATGSEYKQFKINLTYRDYFTHPKYILIVASASKYGDYFTGSTSSVMYLDECELVFE
  protein production: failed

## MNPFKNFETRQVLEETCEVHGCQLWLTKVPIKGRLEELKQCPECTKAAINIFENKLNSQSKINSKLADTYAVFERDSLVSDKLRAKSLENYEIKDEIDQHAINYAKRMEQFYRQDRTGNAIITGPSGVGKSHLTYGLAKFMNEQFKAYESPKSVLFISLVSLFTKIKESFKVDNGYRQADMIELLTRVDYLFLDDLGKESRKGDSQNNEWTHQILYEILDNRSNTIINTNLSSKEIKALYADNYGNGALSSRILEGVTGNSFAYPKDMEDRRY
  protein production: failed

— a protein production outcome set (Wang et al. 2014)
